According to US12281162 (LANOVA MEDICINES DEVELOPMENT, dated 2025):
Residue numbers refer to the chain shown, from its start.

B1: 58-H1L1 (antibody, V domains shown)
VH: QVQLVQSGAEVKKPGASVKVSCKASGYSFTGYYIHWVRQAPGQGLEWMGYISSYNAATSFNQKFKGRVTMTRDTSTSTVYMELSSLRSEDTAVYYCARTELRGPWFAYWGQGTLVTVSS
VL: DIQMTQSPSSLSASVGDRVTITCSASSSVSYMNWYQQKPGKAPKLLIYDTSKLASGVPSRFSGSGSGTDFTLTISSLQPEDFATYYCQQWSNNPLTFGQGTKLEIK
notes: humanized 58F9G10, VH v1 x VL v1
B2: 58-H3L1 (antibody, V domains shown)
VH: B1 VH with R38K, M48I, M70F, R72V, L83F
VL: B1 VL
notes: humanized 58F9G10, VH v3 x VL v1
B3: 34-H2L2 (antibody, V domains shown)
VH: EVQLVESGGGLVKPGGSLRLSCAASGFTFSSYGMSWVRQTPGKGLEWVATISSGGSYTYYPDSVKGRFTISRDNAKNSLYLQMSSLRAEDTAVYYCARQGGDAMDYWGQGTLVTVSS
VL: DIQMTQSPSSLSASVGDRVTITCRASQSINNNLHWYQQKPGKAPKLLIYYASQSISGIPSRFSGSGSGTDFTLTISSVQPEDFATYFCQQSNSRLTFGGGTKVEIK
notes: humanized 34D3H1, VH v2 x VL v2
B4: 34-H1L2 (antibody, V domains shown)
VH: B3 VH with T40A, A49S, S84N
VL: B3 VL
notes: humanized 34D3H1, VH v1 x VL v2
B5: 34-H1L4 (antibody, V domains shown)
VH: B3 VH with T40A, A49S, S84N
VL: B3 VL with Q3V, M4L, A13V, I21L, A43S, V103L
notes: humanized 34D3H1, VH v1 x VL v4
B6: 34-H3L2 (antibody, V domains shown)
VH: B3 VH with Q3H, G44R, Y80N
VL: B3 VL
notes: humanized 34D3H1, VH v3 x VL v2
B7: 34-H3L4 (antibody, V domains shown)
VH: B3 VH with Q3H, G44R, Y80N
VL: B3 VL with Q3V, M4L, A13V, I21L, A43S, V103L
notes: humanized 34D3H1, VH v3 x VL v4
B8: 34-H1L3 (antibody, V domains shown)
VH: B3 VH with T40A, A49S, S84N
VL: B3 VL with M4L, A43S, V103L
notes: humanized 34D3H1, VH v1 x VL v3
B9: 34-H3L3 (antibody, V domains shown)
VH: B3 VH with Q3H, G44R, Y80N
VL: B3 VL with M4L, A43S, V103L
notes: humanized 34D3H1, VH v3 x VL v3
B10: 34-H1L1 (antibody, V domains shown)
VH: B3 VH with T40A, A49S, S84N
VL: B3 VL with I58V, V78L, F87Y
notes: humanized 34D3H1, VH v1 x VL v1
B11: 34-H2L3 (antibody, V domains shown)
VH: B3 VH
VL: B3 VL with M4L, A43S, V103L
notes: humanized 34D3H1, VH v2 x VL v3
B12: 34-H3L1 (antibody, V domains shown)
VH: B3 VH with Q3H, G44R, Y80N
VL: B3 VL with I58V, V78L, F87Y
notes: humanized 34D3H1, VH v3 x VL v1
B13: 34-H2L1 (antibody, V domains shown)
VH: B3 VH
VL: B3 VL with I58V, V78L, F87Y
notes: humanized 34D3H1, VH v2 x VL v1
B14: 34-H2L4 (antibody, V domains shown)
VH: B3 VH
VL: B3 VL with Q3V, M4L, A13V, I21L, A43S, V103L
notes: humanized 34D3H1, VH v2 x VL v4
B15: 37-H2L2 (antibody, V domains shown)
VH: EVQLVESGGGLVQPGGSLRLSCAASGFTFSDYWMNWVRQSPGKGLEWVAEIRLKSNNYATHYAESVKGRFTISRDNAKSSLYLQMNSLRAEDTAVYYCTRPLLWFRRYYAMDYWGQGTLVTVSS
VL: DIQMTQSPSSLSASVGDRVTITCSASQGISNYLNWYQQKPGKTVKLLIYYTSSLHSGVPSRFSGSGSGTDYTLTISSLQPEDFATYYCQQYSKLPFTFGQGTKLEIK
notes: humanized 37B9C4, VH v2 x VL v2
B16: 37-H2L1 (antibody, V domains shown)
VH: B15 VH
VL: B15 VL with T43A, V44P, Y71F
notes: humanized 37B9C4, VH v2 x VL v1
B17: 37-H1L2 (antibody, V domains shown)
VH: B15 VH with S40A, S79N, T99A
VL: B15 VL
notes: humanized 37B9C4, VH v1 x VL v2
B18: 37-H3L3 (antibody, V domains shown)
VH: B15 VH with N76D, A77S, L81V
VL: B15 VL with V19I, Q100S
notes: humanized 37B9C4, VH v3 x VL v3
B19: 37-H1L1 (antibody, V domains shown)
VH: B15 VH with S40A, S79N, T99A
VL: B15 VL with T43A, V44P, Y71F
notes: humanized 37B9C4, VH v1 x VL v1; also called 37B9C4 (H1L1)
B20: 37-H1L3 (antibody, V domains shown)
VH: B15 VH with S40A, S79N, T99A
VL: B15 VL with V19I, Q100S
notes: humanized 37B9C4, VH v1 x VL v3
B21: 37-H3L1 (antibody, V domains shown)
VH: B15 VH with N76D, A77S, L81V
VL: B15 VL with T43A, V44P, Y71F
notes: humanized 37B9C4, VH v3 x VL v1
B22: 37-H3L2 (antibody, V domains shown)
VH: B15 VH with N76D, A77S, L81V
VL: B15 VL
notes: humanized 37B9C4, VH v3 x VL v2
B23: 37-H2L3 (antibody, V domains shown)
VH: B15 VH
VL: B15 VL with V19I, Q100S
notes: humanized 37B9C4, VH v2 x VL v3
B24: 38A10E9A11 (chimeric) (antibody, V domains shown)
VH: QVQLQQSGAELARPGASVKMSCKASGYTFTTYTMHWVKQRPGQGLEWIGYINPSSGYTNYNQKFKDKATLTAGKSSSTAYMQLSSLTSEDSAVYYCASLRSRGYFDYWGRGTTLTVSS
VL: DIVMTQSQKFLSTSVGDRVSITCKASQNVGTAVAWYQQKPGQSPKLLIYSASNRYTGVPDRFTGSGSGTDFTLTISNMQSEDLAGYFCQQYSSYPYTFGGGTKLEIK
notes: also called 38A9E10A11

These binders were tested against T1, human G-protein-coupled receptor family C group 5 member D (GPRC5D) (human, UniProt Q9NZD1 1-345) (assay: FACS, CHO-K1/GPRC5D).
T1 construct: whole, on cells; also called human GPRC5D protein
T1 sequence (Q9NZD1 whole entry): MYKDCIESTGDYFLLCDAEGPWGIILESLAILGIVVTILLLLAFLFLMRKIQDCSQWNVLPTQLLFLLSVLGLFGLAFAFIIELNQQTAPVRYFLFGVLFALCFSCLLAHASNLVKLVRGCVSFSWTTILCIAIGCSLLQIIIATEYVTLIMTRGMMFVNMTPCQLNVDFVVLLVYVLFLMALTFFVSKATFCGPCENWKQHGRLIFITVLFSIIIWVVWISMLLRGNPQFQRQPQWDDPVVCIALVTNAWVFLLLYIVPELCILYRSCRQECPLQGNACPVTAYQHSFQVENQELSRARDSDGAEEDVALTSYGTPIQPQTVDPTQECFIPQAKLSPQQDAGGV

Bottom | LogEC50 | Span | Top | Binder
15000 | 0.252 | 92800 | 108000 | B1
9890 | -0.192 | 93800 | 104000 | B2

Biological target: T1, human G-protein-coupled receptor family …
Experiment: FACS, CHO-K1/GPRC5D
Remark: another data set of the same source

Bottom | LogEC50 | Span | Top | Binder
8740 | 0.625 | 170000 | 179000 | B3
13900 | 0.584 | 168000 | 182000 | B4
10300 | 0.6 | 179000 | 189000 | B5
9040 | 0.646 | 171000 | 180000 | B6
12800 | 0.598 | 180000 | 193000 | B7
10600 | 0.573 | 175000 | 186000 | B8
9120 | 0.651 | 184000 | 193000 | B9
10900 | 0.591 | 186000 | 197000 | B10
7060 | 0.583 | 179000 | 186000 | B11
11100 | 0.521 | 167000 | 178000 | B12
7850 | 0.619 | 179000 | 187000 | B13
4390 | 0.609 | 188000 | 192000 | B14

Biological target: T1, human G-protein-coupled receptor family …
Experiment: FACS, CHO-K1/GPRC5D
Remark: another data set of the same source

Bottom | LogEC50 | Span | Top | Binder
9380 | 0.345 | 166000 | 175000 | B15
9180 | 0.351 | 166000 | 175000 | B16
8850 | 0.35 | 173000 | 182000 | B17
7780 | 0.285 | 173000 | 181000 | B18
9600 | 0.357 | 169000 | 178000 | B19
10400 | 0.233 | 163000 | 173000 | B20
6370 | 0.292 | 173000 | 179000 | B21
9190 | 0.315 | 170000 | 179000 | B22
8050 | 0.333 | 160000 | 168000 | B23

The binders below were run against T1, human G-protein-coupled receptor family … (assay: FACS, NCI-H929 cells).

Bottom | LogEC50 | Span | Top | Binder
342 | -0.199 | 13200 | 13500 | B19
199 | 0.805 | 17700 | 17900 | B10
281 | 0.165 | 13200 | 13500 | B1
276 | 0.3 | 13700 | 13900 | B2

These binders were tested against T1, human G-protein-coupled receptor family … (assay: FACS, CHO-K1/human GPRC5D).

Bottom | LogEC50 | Span | Top | Binder
523 | 0.511 | 102000 | 102000 | B19
171 | 0.781 | 119000 | 119000 | B10
275 | 0.579 | 99200 | 99500 | B1
75.4 | 0.612 | 104000 | 104000 | B2

The binders below were run against T1, human G-protein-coupled receptor family … (assay: FACS, CHO-K1/human GPRC5D, chimeric antibody).
Description: CHO—K1 cells stably expressed human GPRC5D, were harvested from flasks. 100 µl of 1×10⁶ cells/ml of cells were incubated with primary chimeric antibodies in 3-fold serial dilutions starting from 300 nM to 0.001 nM for 30 minutes on ice. After being washed with 200 µl of FACS buffer twice, cells were incubated with secondary antibody for 30 minutes on ice. Cells were washed with 200 µl of FACS buffer twice and transferred to BD Falcon 5 ml tube and analyzed by FACS.

Bottom | LogEC50 | Span | Top | Binder
3020 | 0.245 | 384000 | 387000 | B24
